The target of test [1] is recombinant human TNF-alpha (human) (UniProt P01375). As to the kind of experiment: standard assay of binding to human TNFα.
For test [2] the target is unchanged. The test is described as follows: Scatchard analysis, 125I-TNF and unlabelled TNF in solution, antibody taken out with anti-IgG agarose beads.

The record followed here is patent publication US20030199679A1.

On to “CDP571 (CDR-grafted CB0010, grafted light chain gEU and grafted heavy chain 2hEUg) (antibody)”, for which the Kd (usually the equilibrium constant for the complex coming apart) in test [1] was 0.087 nM; in test [2], 0.14 nM.
